Assay results from patent publication US8889408B2, “Factor taking part in transcription control” (Sony Corporation, priority 2002, dated 2014).

Key:
[1] = target: HDAC3 (Homo sapiens, UniProt O15379); assay: Immunoprecipitation of GFP-HDART with Flag-HDAC in 293 cells; assay type: binding; design: expressed in transfected cells; host or cells: 293 cells; conditions: co-transfected 293 cells; anti-FLAG immunoprecipitation
Procedure: Flag-HDACs expression vectors capable of expressing different types of HDAC (1, 3, 4 or 6) and a GFP-HDART expression vector were, respectively, co-transfected with 293 cells in the same manner as in Example 2, and cell extracts were prepared 24 hours after the transfection. The respective cell extracts were incubated with an anti-Flag antibody, followed by immunoprecipitation. The resulting immunoprecipitate was isolated with SDS-PAGE and an isolated pattern was transferred to a membrane, followed by immunoblotting with use of an anti-Flag antibody or […]. For reference, in order to confirm the expression of GFP-HDART protein in the respective cells, individual samples prior to the immunoprecipitation were similarly developed with SDS-PAGE to conduct immunoblotting with use of an anti-GFP antibody. […] The kinds of HDAC's from the left side of the figure are as follows: lane 1, HDAC1; lane 3, HDAC3; lane 4, HDAC4; and lane 5, HDAC6. It will be noted that lane 2 is for the sample in which GFP-HDART alone was expressed.

[2] = target: T1, Skip (Homo sapiens, UniProt Q13573); assay: Yeast two-hybrid analysis (β-galactosidase) of HDART-Skip interaction; assay type: binding; design: expressed in transfected cells; host or cells: Saccharomyces cerevisiae Y190; conditions: Gal4DBD-HDART and deletion mutants with Gal4AD-Skip; β-galactosidase activity
T1 sequence (Q13573 1-536): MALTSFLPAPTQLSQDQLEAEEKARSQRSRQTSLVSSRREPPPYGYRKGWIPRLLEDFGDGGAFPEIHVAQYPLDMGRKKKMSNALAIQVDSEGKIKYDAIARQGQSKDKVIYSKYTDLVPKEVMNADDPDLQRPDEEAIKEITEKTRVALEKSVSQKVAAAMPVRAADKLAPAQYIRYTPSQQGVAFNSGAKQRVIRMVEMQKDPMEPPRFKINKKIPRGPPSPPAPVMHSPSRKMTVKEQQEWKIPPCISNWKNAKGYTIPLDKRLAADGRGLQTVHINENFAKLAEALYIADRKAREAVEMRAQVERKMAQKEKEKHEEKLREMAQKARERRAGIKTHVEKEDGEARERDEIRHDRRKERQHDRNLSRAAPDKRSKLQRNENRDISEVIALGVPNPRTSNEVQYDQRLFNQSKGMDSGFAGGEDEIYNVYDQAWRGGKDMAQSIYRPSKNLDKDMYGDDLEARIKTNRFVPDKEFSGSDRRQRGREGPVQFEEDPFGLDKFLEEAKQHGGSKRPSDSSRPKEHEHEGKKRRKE
Text: In order to isolate a protein that binds to this HDART, a yeast two-hybrid system was used. More particularly, a yeast MATCHMAKER two-hybrid analysis kit (Clontech) was used for the isolation. The ORF full length of HDART was inserted so that it and the Gal4 DNA binding domain reading frame were aligned in the same frame with each other within pAS-1 vector (Clontech). This bait plasmid was transformed into Saccharomyces cerevisiae Y190 along with pACT2 prey plasmid whose HeLa cDNA (Clontech) had been sub-cloned. The screening for clones into which both plasmids were introduced was carried out according to the kit protocol. […]
For mapping of regions on the Skip taking part in the interaction with HDART, a series of deletion mutations where various regions on Skip (N-terminus region (codon 1-220), nuclear hormone binding region (NHR binding, codon 221-388), and tran-activation region (TA, codon 438-536) were deleted, and the interaction between HDART and mutated Skip was analyzed according to the yeast two-hybrid analysis using Gal4DBD-HDART as set forth in Example 2. The results of the analysis are shown in FIG. 5A. The sign “+” indicated at the right of FIG. 5A indicates the observation of the interaction by the filter lift analysis of β-galactosidase activity, and the number of “+” indicates the relative intensity of the interaction. […]

[3] = system: MM-1-19-P cells; assay: ATRA-induced differentiation of MM-1-19-P rhabdomyosarcoma cells; assay type: cell-based, human
Text: It is known that ATRA (all-trans retinoic acid) is an important inducer for tumor cell differentiation (20-22). The human rhabdomyosarcoma cell line MM-1-19-P is constituted mainly of small polygonal cells, which when provided with retinoic acid, ultimately differentiate into myotubular cytomegalic cells. In order to clarify the physiological role of HDART in the reaction ascribed to nuclear hormone receptors, the influence of the expression with HDART on the differentiation of MM-1-19-P caused by ATRA was analyzed.
MM-1-19-P cells were plated in a […] Petri dish, followed by co-transfection of the cells with 0.4 μg of pGFP vector and 2 μg of pcDNA3 (vacant vector) or pcDMA3-HDART (HDART expression vector). 24 hours after the transfection, the medium was changed with an ATRA-containing (2 μM) or ATRA-free fresh one. […] All experiments were repeated four times, and the number of cells assessed as positive for GFP was counted. It will be noted that in FIG. 12, the standard microphotographs of green fluorescence of GFP are shown in panels of FIGS. 12A, 12B, 12C and 12D, and the phase differential microphotographs are shown in panels of FIGS. 12E and 12F, respectively. In the figure, 12A indicates ATRA non-treated, vacant vector-introduced cells, 12B indicates ATRA treated, vacant vector-introduced cells, 12C indicates ATRA-non-treated, HDART expression vector-introduced cells, 12D indicates ATRA-treated, HDART expression vector-introduced cells, 12E indicates cells under the same conditions as in 12C above, and 12F indicates cells under the same conditions as in 12D above. In addition, the black arrow in the panel of FIG. 12F indicates undifferentiated GFP positive cells, and white arrow indicates differentiated cells.

HDAC3, sequence (O15379 whole entry, species assumed): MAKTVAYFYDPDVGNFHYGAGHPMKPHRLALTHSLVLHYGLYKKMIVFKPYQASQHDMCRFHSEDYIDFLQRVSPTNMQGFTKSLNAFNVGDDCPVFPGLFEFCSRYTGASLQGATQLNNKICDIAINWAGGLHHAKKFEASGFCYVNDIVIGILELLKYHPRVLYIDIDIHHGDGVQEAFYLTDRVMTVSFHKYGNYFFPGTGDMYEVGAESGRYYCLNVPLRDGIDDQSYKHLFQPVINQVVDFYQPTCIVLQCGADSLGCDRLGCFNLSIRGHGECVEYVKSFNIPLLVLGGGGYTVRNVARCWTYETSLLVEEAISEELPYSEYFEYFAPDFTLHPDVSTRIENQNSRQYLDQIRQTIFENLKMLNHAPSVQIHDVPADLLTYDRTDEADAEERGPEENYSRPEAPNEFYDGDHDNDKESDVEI

B1: HDART: HDAC associated repressor TPR protein, 855 amino acids, SEQ ID NO: 2; transcription repressing factor, used as fusions or expressed from vector (protein, listed as Homo sapiens)
chain: MVVMARLSRPERPDLVFEEEDLPYEEEIMRNQFSVKCWLRYIEFKQGAPKPRLNQLYERALKLLPCSYKLWYRYLKARRAQVKHRCVTDPAYEDVNNCHERAFVFMHKMPRLWLDYCQFLMDQGRVTHTRRTFDRALRALPITQHSRIWPLYLRFLRSHPLPETAVRGYRRFLKLSPESAEEYIEYLKSSDRLDEAAQRLATVVNDERFVSKAGKSNYQLWHELCDLISQNPDKVQSLNVDAIIRGGLTRFTDQLGKLWCSLADYYIRSGHFEKARDVYEEAIRTVMTVRDFTQVFDSYAQFEESMIAAKMETASELGREEEDDVDLELRLARFEQLISRRPLLLNSVLLRQNPHHVHEWHKRVALHQGRPREIINTYTEAVQTVDPFKATGKPHTLWVAFAKFYEDNGQLDDARVILEKATKVNFKQVDDLASVWCQCGELELRHENYDEALRLLRKATALPARRAEYFDGSEPVQNRVYKSLKVWSMLADLEESLGTFQSTKAVYDRILDLRIATPQIVINYAMFLEEHKYFEESFKAYERGISLFKWPNVSDIWSTYLTKFIARYGGRKLERARDLFEQALDGCPPKYAKTLYLLYAQLEEEWGLARHAMAVYERATRAVEPAQQYDMFNIYIKRAAEIYGVTHTRGIYQKAIEVLSDEHAREMCLRFADMECKLGEIDRARAIYSFCSQICDPRTTGAFWQTWKDFEVRHGNEDTIKEMLRIRRSVQATYNTQVNFMASQMLKVSGSATGTVSDLAPGQSGMDDMKLLEQRAEQLAAEAERDQPLRAQSKILFVRSDASREELAELAQQVNPEEIQLGEDEDEDEMDLEPNEVRLEQQSVPAAVFGSLKED
- interaction with HDAC3 [1]: exhibits interaction
- interaction with Skip [2]: able to directly interact with Skip
- change in phenotype on ATRA treatment ([3]; HDART expression vector-introduced GFP positive cells, ATRA 2 μM, 48 hours): little change in the phenotype
- numbers of GFP positive cells, ATRA treated versus non-treated group ([3]; HDART expression vector-introduced cells): same
